This note sets out measurements from patent publication US20100190693A1.

Assay [1] concerns the target CBP (endogenous, HIT cells) (hamster). The assay can be described thus: cell-based or functional assay.
For a further assay, the target named is KIX-VP16 (UniProt Q92793). Description: cell-based or functional assay.
Sequence of KIX-VP16 (Q92793 587-666): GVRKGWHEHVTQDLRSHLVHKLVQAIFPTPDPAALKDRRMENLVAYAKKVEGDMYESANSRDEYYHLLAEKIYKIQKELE

Consider “GAL4-CREB M1 (Ser133Ala) (from UniProt P04386 1-147; P16220 1-341)”, for which the GAL4 luciferase reporter in HIT cells, response to cAMP in assay [1] was 2.5 fold.
“GAL4-CREB, wild-type (from UniProt P04386 1-147; P16220 1-341)”: the GAL4 luciferase reporter in HIT cells, response to cAMP in assay [1] was determined as 10 fold.
As to GAL4-KID (from UniProt P16220 87-146), in the assay with KIX-VP16, the GAL4 luciferase reporter, mammalian two-hybrid assay in HIT cells, forskolin came out at 20 fold.
